The target of experiment [1] is T1, canine CD20 ECD2 peptide (canine).
T1 peptide: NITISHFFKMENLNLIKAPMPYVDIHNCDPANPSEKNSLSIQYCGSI
Nature of the experiment: ELISA on canine CD20 ECD2 peptide (FIG. 5).

The target of experiment [2] is T2, canine CD20 ECD2-mFc fusion protein (canine).
T2 construct: also called cCD20 ECD2-mFc
T2 chain: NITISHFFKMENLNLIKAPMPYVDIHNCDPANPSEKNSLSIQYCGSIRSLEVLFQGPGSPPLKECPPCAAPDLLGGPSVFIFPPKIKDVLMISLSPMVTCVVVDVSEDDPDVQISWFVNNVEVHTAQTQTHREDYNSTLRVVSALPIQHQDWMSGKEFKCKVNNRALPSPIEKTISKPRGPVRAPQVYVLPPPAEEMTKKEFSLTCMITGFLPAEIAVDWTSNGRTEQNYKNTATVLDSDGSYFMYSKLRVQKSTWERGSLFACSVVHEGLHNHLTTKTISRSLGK
Nature of the experiment: ELISA, antigen coated at 200 ng/well, antibody 5 ug/ml. On the procedure:
(§1) This strategy- enabled identification of the specific sequences in canine CD20 that each mAb binds. Binding was tested using a standard ELISA protocol. Briefly, recombinant canine CD20 ECD2-mFc fusion protein and human/canine hybrid variants thereof were diluted in PBS and bound to a 96-well microtiter plate at 200 ng/well by overnight incubation at 4° C. The plate was rinsed three times with PBST buffer, blocked with a solution of 3% BSA in PBS for one hour at 37° C., then rinsed once with PBST. Mouse monoclonal antibodies 1E4, 1G1, and 1G10 were diluted to a concentration of 5 μg/ml in PBS and 50 μl of this dilution was applied to the plate for 1 hour at room temperature. The plate was then rinsed three times with PBST, and Jackson Immunoresearch goat anti-mouse-IgG light chain-specific HRP conjugate (#115-035-174) diluted to 1:5000 in PBS (50 μL) was added to each well, and the plate was incubated for 45 min at room temperature. The plate was washed three times with PBST, then 100 μl of SureBlueTMB substrate (KPL #52-00-03) was added to each well and the plate was incubated for about 10 min at room temperature. The plate was read at 650 nm in a spectrophotometer.

Experiment [3] addresses T3, Hum-Can CD20 ECD2 V3 (mFc fusion) (human/canine hybrid).
T3 construct: Described as a hybrid version of the original immunogen CD20 ECD2-mFc
T3 chain: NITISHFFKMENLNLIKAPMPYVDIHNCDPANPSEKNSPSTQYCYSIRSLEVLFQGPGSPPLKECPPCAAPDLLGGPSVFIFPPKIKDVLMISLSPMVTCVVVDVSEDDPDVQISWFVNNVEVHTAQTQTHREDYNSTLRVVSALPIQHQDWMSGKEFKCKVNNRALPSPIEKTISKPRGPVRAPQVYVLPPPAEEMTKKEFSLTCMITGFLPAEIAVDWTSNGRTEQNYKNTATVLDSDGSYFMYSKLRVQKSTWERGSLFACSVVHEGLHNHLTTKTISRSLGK
The description is as above. On the procedure: as §1

The target in experiment [4] is T4, canine CD20 on canine B cells / B cell lymphoma cells (canine, UniProt Q3C2E2 1-297).
T4 construct: whole, on cells; Endogenous CD20 on canine cells
T4 sequence (looked up): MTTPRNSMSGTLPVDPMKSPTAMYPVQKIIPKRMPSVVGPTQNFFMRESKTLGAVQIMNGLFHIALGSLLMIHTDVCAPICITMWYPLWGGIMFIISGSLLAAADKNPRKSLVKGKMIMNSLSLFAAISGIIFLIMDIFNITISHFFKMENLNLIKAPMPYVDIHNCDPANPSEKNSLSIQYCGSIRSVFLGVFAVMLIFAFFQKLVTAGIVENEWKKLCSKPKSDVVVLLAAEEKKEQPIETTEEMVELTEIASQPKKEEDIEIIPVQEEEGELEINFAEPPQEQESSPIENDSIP
Nature of the experiment: FACS on canine B cell lymphoma cells expressing canine CD20. On the procedure:
The relative affinities of the mouse monoclonal antibodies 1E4, 1G1, and 1G10 for binding to canine CD20 was determined by fluorescent activated cell sorting (FACS) using canine B cell lymphoma cells, which express canine CD20.

Experiment [5] deals with T1, canine CD20 ECD2 peptide. Nature of the experiment: ELISA on canine CD20 ECD2 peptide. (In an ELISA, binding on a coated surface is turned into a signal by an enzyme label.)
In experiment [6] the target is T5, Hum-Can CD20 ECD2 V2 (mFc fusion) (human/canine hybrid).
T5 construct: Described as a hybrid version of the original immunogen CD20 ECD2-mFc
T5 chain: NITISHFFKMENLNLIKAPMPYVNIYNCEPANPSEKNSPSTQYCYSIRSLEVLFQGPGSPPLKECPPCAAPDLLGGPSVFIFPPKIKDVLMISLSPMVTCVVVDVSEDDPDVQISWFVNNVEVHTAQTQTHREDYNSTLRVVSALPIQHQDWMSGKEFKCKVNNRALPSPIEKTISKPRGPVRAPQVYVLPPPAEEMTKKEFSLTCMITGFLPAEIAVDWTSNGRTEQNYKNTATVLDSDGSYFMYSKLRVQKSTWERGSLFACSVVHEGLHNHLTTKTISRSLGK
Nature of the experiment: ELISA, antigen coated at 200 ng/well, antibody 5 ug/ml. On the procedure: as §1

The target of experiment [7] is T6, Hum-Can CD20 ECD2 V4 (mFc fusion) (human/canine hybrid).
T6 construct: Described as a hybrid version of the original immunogen CD20 ECD2-mFc
T6 chain: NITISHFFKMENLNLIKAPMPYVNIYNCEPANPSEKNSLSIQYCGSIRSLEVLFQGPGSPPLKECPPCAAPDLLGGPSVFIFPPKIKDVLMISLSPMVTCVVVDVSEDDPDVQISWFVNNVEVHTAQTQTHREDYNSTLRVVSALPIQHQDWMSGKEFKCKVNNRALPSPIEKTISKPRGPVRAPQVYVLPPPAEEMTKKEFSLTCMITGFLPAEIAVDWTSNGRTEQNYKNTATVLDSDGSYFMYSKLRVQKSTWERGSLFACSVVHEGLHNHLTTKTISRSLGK
Described as above. On the procedure:
as §1

What is called Kd is a measure of binding affinity in units of concentration.

B1: 1E4-cIgGB with G34 to A substitution in VL (antibody, V domains shown)
VH: EVQLVESGGGLVKPGGSLKLSCAASGFTFSDYGMLWVRQAPEKGLEWIAYISSGSSTIYYADRVKGRFTISRDNAKNTLFLQMTSLRSEDTAMYYCSTGTFAYWGQGTPVTVSS
VL: DVVMTQNPLSLPVSLGDQASISCRSSQSLIYNNANTYLHWYRQKPGQSPKLLIYKVSNRFSGVPDRFSGSGSGTDFTLKISRVEAEDLGVYFCSQSTHVPFTFGSGTKLEIKR
notes: also called G34A
Consider B1, for which, in experiment [1], the binding result is “binds”.

B2: mouse monoclonal antibody 1E4 (antibody, V domains shown)
VH: EVQLVESGGGLVKPGGSLKLSCAASGFTFSDYGMLWVRQAPEKGLEWIAYISSGSSTIYYADRVKGRFTISRDNAKNTLFLQMTSLRSEDTAMYYCSTGTFAYWGQGTPVTVSS
VL: DVVMTQNPLSLPVSLGDQASISCRSSQSLIYNNGNTYLHWYRQKPGQSPKLLIYKVSNRFSGVPDRFSGSGSGTDFTLKISRVEAEDLGVYFCSQSTHVPFTFGSGTKLEIK
notes: Mouse monoclonal antibody from a hybridoma; also called 1E4-mAb; hybridoma antibody 1E4
On to B2, for which the binding result in experiment [2] and in experiment [3] was “binds” in each case. This molecule returned a Kd in experiment [4] of 0.97 nM.

B3: 1E4-cIgGB with G34 to K substitution in VL (antibody, V domains shown)
VH: EVQLVESGGGLVKPGGSLKLSCAASGFTFSDYGMLWVRQAPEKGLEWIAYISSGSSTIYYADRVKGRFTISRDNAKNTLFLQMTSLRSEDTAMYYCSTGTFAYWGQGTPVTVSS
VL: DVVMTQNPLSLPVSLGDQASISCRSSQSLIYNNKNTYLHWYRQKPGQSPKLLIYKVSNRFSGVPDRFSGSGSGTDFTLKISRVEAEDLGVYFCSQSTHVPFTFGSGTKLEIKR
notes: also called G34K
Turning to B3, in experiment [1], the binding result is listed as “binds”.

B4: 1E4-cIgGB with N33 to Y substitution in VL (antibody, V domains shown)
VH: EVQLVESGGGLVKPGGSLKLSCAASGFTFSDYGMLWVRQAPEKGLEWIAYISSGSSTIYYADRVKGRFTISRDNAKNTLFLQMTSLRSEDTAMYYCSTGTFAYWGQGTPVTVSS
VL: DVVMTQNPLSLPVSLGDQASISCRSSQSLIYNYGNTYLHWYRQKPGQSPKLLIYKVSNRFSGVPDRFSGSGSGTDFTLKISRVEAEDLGVYFCSQSTHVPFTFGSGTKLEIKR
notes: Whole antibody (heavy plus light chains) made 'using the above procedures'
B4: in experiment [5], the binding result is recorded as “binds”.

B5: 1E4-cIgGB with G34 to Q substitution in VL (antibody, V domains shown)
VH: EVQLVESGGGLVKPGGSLKLSCAASGFTFSDYGMLWVRQAPEKGLEWIAYISSGSSTIYYADRVKGRFTISRDNAKNTLFLQMTSLRSEDTAMYYCSTGTFAYWGQGTPVTVSS
VL: DVVMTQNPLSLPVSLGDQASISCRSSQSLIYNNQNTYLHWYRQKPGQSPKLLIYKVSNRFSGVPDRFSGSGSGTDFTLKISRVEAEDLGVYFCSQSTHVPFTFGSGTKLEIKR
notes: also called G34Q
Regarding B5, the binding result in experiment [1] is “binds”.

B6: 1E4-cIgGB with N33 to K substitution in VL (antibody, V domains shown)
VH: EVQLVESGGGLVKPGGSLKLSCAASGFTFSDYGMLWVRQAPEKGLEWIAYISSGSSTIYYADRVKGRFTISRDNAKNTLFLQMTSLRSEDTAMYYCSTGTFAYWGQGTPVTVSS
VL: DVVMTQNPLSLPVSLGDQASISCRSSQSLIYNKGNTYLHWYRQKPGQSPKLLIYKVSNRFSGVPDRFSGSGSGTDFTLKISRVEAEDLGVYFCSQSTHVPFTFGSGTKLEIKR
notes: also called N33K
Turning to B6, the binding result in experiment [1] is given as “binds”.

B7: mouse monoclonal antibody 1G1 (antibody, V domains shown)
VH: EVQLQQSGAELVRPGASVKLSCTASGFNIKDDYMHWVKQRPEQGLEWIGWIDPENGHTKYASKFQGKATITADTSSNTAYLQLSSLTSEDTAVYYCTSLRHYYGSSYVSPHYYWGQGTTLTVSS
VL: DIVMTQSQKFMSRSVGDRVSVTCKASQNVGPNVAWYQQRPGQSPKPLIYSASYRYSGVPDRFTGSGSGTDFTLTISNVQSEDLAEYFCQQYNNYPYTFGGGTKLEIK
notes: Mouse monoclonal antibody from a hybridoma; also called hybridoma antibody 1G1
As for B7, the binding result in experiment [2], in experiment [6], in experiment [3] and in experiment [7] was “binds” throughout. In experiment [4], binding was put at a Kd of 19.8 nM.

B8: mouse monoclonal antibody 1G10 (antibody, V domains shown)
VH: EVQLQQSGPELVKPGASVKISCKASGYTFTDYYMNWVKQSHGKSLEWIGDINPNNGDTSYNQKFKGKAPLTVDKSSSTAYMEVRSLTSEDSAVYFCARGGVLRYPYYYVMDYWGQGTSVTVSS
VL: DIVMTQAAPSVPVTPGESVSISCRSNKSLLHRNGNTYLYWFLQRPGQSPQLLIYRMSNLASGVPDRFSGSGSGTAFTLRISRVEAEDVGVYYCMQHLEFPFTFGGGTKLEIK
notes: Mouse monoclonal antibody from a hybridoma; also called hybridoma antibody 1G10
For B8, the binding result in experiment [2] and in experiment [3] was “binds” each time. The molecule also gave a Kd in experiment [4] of 0.29 nM.

These data come from patent US20170355775A1 (ELANCO TIERGESUNDHEIT, published 2017).
